Test [1] concerns the target Pea seed ferritin purified from pea seed milk boiled for 5 min (Pisum sativum (pea)). Briefly: native gel or EMSA; Native-PAGE, 5-20% gradient gel, samples not boiled, 180 V, 4 °C, Coomassie brilliant blue R-250; assembly state of the purified ferritin. Background: Mobility shift assays separate free from complexed probe on a gel.
In test [2] the target is Pea seed ferritin purified from pea seed milk boiled for 10 min (Pisum sativum (pea)). The test is described as above.

B1: Pea seed ferritin purified from pea seed milk boiled for 5 min (natural protein)
chain: TTAPLTGVIFEPFEEVKKDYLAVPSVPLVSLARQNFADECESVINEQINVEYNASYVYHSLFAYFDRDNVALKGFAKFFKESSEEHREHAEKLMKYQNTRGGRVVLHPIKDVPSEFEHVEKGDALYAMELALSLEKLTNEKLLNVHSVAERNNDLEMTHFIEGEYLAEQVEAIKKISEYVAQLRRVGKGHGVWHFDQRLLHGVHGA
modifications: not checked
For orientation: stoichiometry N means a count of units in the complex or per binding partner. B1: the stoichiometry N in test [1] came to 24.

B2: Pea seed ferritin purified from pea seed milk boiled for 10 min (natural protein)
chain: TTAPLTGVIFEPFEEVKKDYLAVPSVPLVSLARQNFADECESVINEQINVEYNASYVYHSLFAYFDRDNVALKGFAKFFKESSEEHREHAEKLMKYQNTRGGRVVLHPIKDVPSEFEHVEKGDALYAMELALSLEKLTNEKLLNVHSVAERNNDLEMTHFIEGEYLAEQVEAIKKISEYVAQLRRVGKGHGVWHFDQRLLHGVHGA
modifications: not checked
B2 gave a stoichiometry N in test [2] of 24.
